For the experiment, the target named is T1, YgiT (E. coli, UniProt Q46864 1-131).
T1 construct: YgiT with no tag named, co-expressed with H-MqsR from pET-MqsRYgiT (the operon cloned in pET28a) or induced from pBAD-YgiT in cells; also called YgiT of the H-MqsRYgiT complex; YgiT expressed from pBAD-YgiT
T1 sequence: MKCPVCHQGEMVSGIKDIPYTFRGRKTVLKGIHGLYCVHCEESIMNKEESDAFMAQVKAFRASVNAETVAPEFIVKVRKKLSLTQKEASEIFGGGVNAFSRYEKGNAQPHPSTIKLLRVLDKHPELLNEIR
Put plainly: co-expression and co-purification on Ni-NTA agarose through the tag of H-MqsR.

B1: N-terminal histidine-tagged MqsR (enzyme)
chain: MEKRTPHTRLSQVKKLVNAGQVRTTRSALLNADELGLDFDGMCNVIIGLSESDFYKSMTTYSDHTIWQDVYRPRLVTGQVYLKITVIHDVLIVSFKEK
notes: also called H-MqsR; His-MqsR; not shown: N-terminal histidine tag from pET28a
As to B1, the binding result was “binds”.

The values are drawn from patent US20110217282A1 (UNIVERSITY OF MEDICINE AND DENTISTRY OF NEW JERSEY, published 2011).
